Consider 1 molecule from PMC12249877, “AlphaFold 3-Assisted Deciphering of the DNA Recognition by DREB1 Transcription Factors in Rice”.

One data set deals with OsDREB1A-DBD V64A (Oryza sativa (rice), UniProt Q64MA1 32-103, V64A). The data set is described as follows: EMSA; 0.6 uM protein; EMSA: 0.01 uM FAM-dsDNA, 50 mM NaH2PO4, 150 mM NaCl, 5 mM DTT, 2% glycerol, pH 6.8, 15 min, room temperature; 12% native PAGE in 0.5x TBE. The conditions noted are these: protein: recombinant; tags: C-terminal His-tag (pET28); blunt.
Sequence of OsDREB1A-DBD V64A (Q64MA1 32-103 V64A): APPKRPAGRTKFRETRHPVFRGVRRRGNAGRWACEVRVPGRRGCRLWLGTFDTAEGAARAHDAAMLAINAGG
The target in the next data set is OsDREB1A-DBD F43G (Oryza sativa (rice), UniProt Q64MA1 32-103, F43G). Described as above. To be noted: protein: recombinant; tags: C-terminal His-tag (pET28); blunt.
Sequence of OsDREB1A-DBD F43G (Q64MA1 32-103 F43G): as the sequence (Q64MA1 32-103 V64A) above, with F12G, A33V counted along it

B1: CRT (dsDNA)
DNA 1: GTACGCCGACACT
DNA 2: AGTGTCGGCGTAC
For B1, the binding result in the data set with OsDREB1A-DBD V64A and with OsDREB1A-DBD F43G was “binds” each time.
